# In the supplement of paper PMC9112550, “Optimization of the antimicrobial peptide Bac7 by deep mutational scanning” (BMC Biology, 2022):
# Tested on: Escherichia coli TOP10
# Test: shrunken log2 fold change of peptide-encoding DNA abundance (4.5 h post-induction vs induction); higher = less antimicrobial activity (less host growth inhibition)
# Settings: time post-induction: 4.5 h; library: site-saturation at positions 5, 18, 19, 20
# 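Further: peptides expressed intracellularly from a pBAD plasmid library in pooled LB shake-flask culture, induced with 0.3% L-arabinose, DNA abundance read by NGS, three biological replicates, DESeq2 with apeglm shrinkage.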
row,Sequence,shrunken log2 fold change
1,RRIRIRPPRLPRPRPRPRRGPRP,0.184
2,RRIRARPPRLPRPRPRPWFLPRP,-0.399
3,RRIRMRPPRLPRPRPRPVQSPRP,0.206
4,RRIRGRPPRLPRPRPRPDYYPRP,-0.0926
5,RRIRHRPPRLPRPRPRPVWRPRP,0.0724
6,RRIRIRPPRLPRPRPRPGRDPRP,0.0442
7,RRIRVRPPRLPRPRPRPKACPRP,0.153
8,RRIRKRPPRLPRPRPRPAKVPRP,0.0797
9,RRIRMRPPRLPRPRPRPESTPRP,2.28
10,RRIRFRPPRLPRPRPRPINHPRP,-0.511
11,RRIRTRPPRLPRPRPRPRAPPRP,0.511
12,RRIRVRPPRLPRPRPRPRKPPRP,0.0947
13,RRIRQRPPRLPRPRPRPWTLPRP,-0.158
14,RRIRHRPPRLPRPRPRPLTSPRP,-0.246
15,RRIRGRPPRLPRPRPRPKSNPRP,0.446
16,RRIRPRPPRLPRPRPRPAKAPRP,-0.0289
17,RRIRKRPPRLPRPRPRPYCDPRP,0.00748
18,RRIRIRPPRLPRPRPRPLELPRP,-0.461
19,RRIRWRPPRLPRPRPRPHKEPRP,-0.0233
20,RRIRYRPPRLPRPRPRPNACPRP,-0.047
21,RRIRARPPRLPRPRPRPVWAPRP,0.305
22,RRIRRRPPRLPRPRPRPETKPRP,0.511
23,RRIRYRPPRLPRPRPRPEDCPRP,-0.029
24,RRIRMRPPRLPRPRPRPFVAPRP,0.113
25,RRIRGRPPRLPRPRPRPCDHPRP,0.135

row,Sequence,shrunken log2 fold change
1,RRIRVRPPRLPRPRPRPYRVPRP,-0.0295
2,RRIRKRPPRLPRPRPRPPTWPRP,0.702
3,RRIRKRPPRLPRPRPRPCHWPRP,0.139
4,RRIRNRPPRLPRPRPRPHVFPRP,-0.151
5,RRIRPRPPRLPRPRPRPRLIPRP,0.292
6,RRIRFRPPRLPRPRPRPKGFPRP,0.21
7,RRIRPRPPRLPRPRPRPVSGPRP,0.584
8,RRIRMRPPRLPRPRPRPPILPRP,0.0619
9,RRIRRRPPRLPRPRPRPCGCPRP,0.0953
10,RRIRFRPPRLPRPRPRPSWMPRP,-0.0113
11,RRIRVRPPRLPRPRPRPAEDPRP,0.0101
12,RRIRDRPPRLPRPRPRPDPHPRP,0.0248
13,RRIRCRPPRLPRPRPRPDTRPRP,-0.0118
14,RRIRMRPPRLPRPRPRPGQDPRP,0.781
15,RRIRWRPPRLPRPRPRPSKQPRP,0.143
16,RRIRNRPPRLPRPRPRPDLHPRP,1.8
17,RRIRWRPPRLPRPRPRPWVNPRP,-0.183
18,RRIRFRPPRLPRPRPRPSDVPRP,0.0142
19,RRIRMRPPRLPRPRPRPEWKPRP,0.0511
20,RRIRGRPPRLPRPRPRPGWKPRP,0.0657
21,RRIRVRPPRLPRPRPRPDDCPRP,-0.197
22,RRIRRRPPRLPRPRPRPQIEPRP,0.694
23,RRIRNRPPRLPRPRPRPKNDPRP,-0.0949
24,RRIRHRPPRLPRPRPRPAGYPRP,-0.0739
25,RRIRARPPRLPRPRPRPGNVPRP,0.332

row,Sequence,shrunken log2 fold change
1,RRIRKRPPRLPRPRPRPMMSPRP,-0.00973
2,RRIRWRPPRLPRPRPRPPGMPRP,0.759
3,RRIRWRPPRLPRPRPRPELEPRP,1.35
4,RRIRFRPPRLPRPRPRPIIRPRP,-0.014
5,RRIRHRPPRLPRPRPRPEWPPRP,0.228
6,RRIRWRPPRLPRPRPRPICQPRP,-0.146
7,RRIRFRPPRLPRPRPRPDHNPRP,-0.911
8,RRIRERPPRLPRPRPRPKFCPRP,-0.267
9,RRIRMRPPRLPRPRPRPDWEPRP,0.382
10,RRIRHRPPRLPRPRPRPWFNPRP,-0.153
11,RRIRKRPPRLPRPRPRPWNKPRP,-0.129
12,RRIRIRPPRLPRPRPRPVCIPRP,-0.527
13,RRIRLRPPRLPRPRPRPIDSPRP,-0.0384
14,RRIRSRPPRLPRPRPRPDDSPRP,-0.237
15,RRIRVRPPRLPRPRPRPGTSPRP,-0.073
16,RRIRPRPPRLPRPRPRPHFVPRP,-0.144
17,RRIRCRPPRLPRPRPRPYHQPRP,-0.819
18,RRIRIRPPRLPRPRPRPYYFPRP,-1.16
19,RRIRDRPPRLPRPRPRPQHIPRP,-0.762
20,RRIRGRPPRLPRPRPRPNMPPRP,-0.317
21,RRIRTRPPRLPRPRPRPEGEPRP,-0.0398
22,RRIRLRPPRLPRPRPRPKFAPRP,0.293
23,RRIRKRPPRLPRPRPRPDFPPRP,0.416
24,RRIRLRPPRLPRPRPRPRKAPRP,0.022
25,RRIRHRPPRLPRPRPRPFAFPRP,-0.121

row,Sequence,shrunken log2 fold change
1,RRIRVRPPRLPRPRPRPRMVPRP,-0.0168
2,RRIRDRPPRLPRPRPRPCGHPRP,0.232
3,RRIRSRPPRLPRPRPRPPKGPRP,0.144
4,RRIRMRPPRLPRPRPRPDEPPRP,2.72
5,RRIRLRPPRLPRPRPRPHRIPRP,-0.0339
6,RRIRERPPRLPRPRPRPMQNPRP,0.168
7,RRIRPRPPRLPRPRPRPCARPRP,0.0698
8,RRIRARPPRLPRPRPRPCFYPRP,-0.218
9,RRIRTRPPRLPRPRPRPMEAPRP,-0.0389
10,RRIRGRPPRLPRPRPRPTDFPRP,0.161
11,RRIRQRPPRLPRPRPRPIFRPRP,0.0716
12,RRIRSRPPRLPRPRPRPSDVPRP,-0.221
13,RRIRKRPPRLPRPRPRPSSHPRP,-0.163
14,RRIRARPPRLPRPRPRPGTTPRP,0.143
15,RRIRERPPRLPRPRPRPVPAPRP,0.224
16,RRIRWRPPRLPRPRPRPWQAPRP,0.00325
17,RRIRIRPPRLPRPRPRPYIYPRP,-0.176
18,RRIRERPPRLPRPRPRPPVSPRP,0.0232
19,RRIRFRPPRLPRPRPRPDEAPRP,0.0246
20,RRIRNRPPRLPRPRPRPPGGPRP,0.748
21,RRIRKRPPRLPRPRPRPEWHPRP,0.125
22,RRIRVRPPRLPRPRPRPDIAPRP,-0.211
23,RRIRERPPRLPRPRPRPPCAPRP,-0.0458
24,RRIRDRPPRLPRPRPRPPWKPRP,0.141
25,RRIRWRPPRLPRPRPRPYCCPRP,-0.569

row,Sequence,shrunken log2 fold change
1,RRIRWRPPRLPRPRPRPTGVPRP,0.334
2,RRIRLRPPRLPRPRPRPRPMPRP,0.725
3,RRIRLRPPRLPRPRPRPARVPRP,0.329
4,RRIRIRPPRLPRPRPRPHIVPRP,-0.0875
5,RRIRHRPPRLPRPRPRPANRPRP,-0.129
6,RRIRSRPPRLPRPRPRPIEDPRP,0.0359
7,RRIRLRPPRLPRPRPRPTVGPRP,0.0924
8,RRIRSRPPRLPRPRPRPNIFPRP,-0.138
9,RRIRDRPPRLPRPRPRPIMDPRP,0.308
10,RRIRRRPPRLPRPRPRPCGPPRP,0.517
11,RRIRKRPPRLPRPRPRPCPDPRP,-0.0203
12,RRIRDRPPRLPRPRPRPVAQPRP,0.616
13,RRIRMRPPRLPRPRPRPECVPRP,2.97
14,RRIRRRPPRLPRPRPRPQLRPRP,0.213
15,RRIRVRPPRLPRPRPRPNARPRP,0.102
16,RRIRSRPPRLPRPRPRPIECPRP,-0.139
17,RRIRPRPPRLPRPRPRPDWSPRP,-0.195
18,RRIRIRPPRLPRPRPRPQFLPRP,-0.186
19,RRIRHRPPRLPRPRPRPCGLPRP,-0.0199
20,RRIRCRPPRLPRPRPRPPVAPRP,0.443
21,RRIRWRPPRLPRPRPRPFFRPRP,0.33
22,RRIRPRPPRLPRPRPRPLGHPRP,0.163
23,RRIRNRPPRLPRPRPRPEHGPRP,-0.0132
24,RRIRTRPPRLPRPRPRPCGCPRP,0.0633
25,RRIRCRPPRLPRPRPRPYYHPRP,-1.28

row,Sequence,shrunken log2 fold change
1,RRIRNRPPRLPRPRPRPAWDPRP,0.151
2,RRIRSRPPRLPRPRPRPQIRPRP,0.267
3,RRIRARPPRLPRPRPRPMCYPRP,-0.112
4,RRIRKRPPRLPRPRPRPPNYPRP,-0.19
5,RRIRHRPPRLPRPRPRPLPLPRP,0.0701
6,RRIRNRPPRLPRPRPRPPWTPRP,0.272
7,RRIRDRPPRLPRPRPRPMCVPRP,0.101
8,RRIRPRPPRLPRPRPRPDHTPRP,0.0191
9,RRIRDRPPRLPRPRPRPQPRPRP,0.458
10,RRIRFRPPRLPRPRPRPTCQPRP,-0.0887
11,RRIRWRPPRLPRPRPRPELNPRP,0.259
12,RRIRFRPPRLPRPRPRPTEAPRP,0.332
13,RRIRPRPPRLPRPRPRPNSGPRP,0.0788
14,RRIRFRPPRLPRPRPRPQFAPRP,0.0456
15,RRIRSRPPRLPRPRPRPCVLPRP,-0.247
16,RRIRKRPPRLPRPRPRPIATPRP,-0.0616
17,RRIRARPPRLPRPRPRPKQLPRP,0.155
18,RRIRLRPPRLPRPRPRPVAVPRP,0.0513
19,RRIRFRPPRLPRPRPRPGVAPRP,0.292
20,RRIRVRPPRLPRPRPRPTMDPRP,-0.116
21,RRIRGRPPRLPRPRPRPNVPPRP,0.0564
22,RRIRHRPPRLPRPRPRPGILPRP,-0.111
23,RRIRQRPPRLPRPRPRPPIIPRP,-0.0647
24,RRIRTRPPRLPRPRPRPRAYPRP,-0.339
25,RRIRQRPPRLPRPRPRPRADPRP,0.156
